In patent US20180306788:

T1: synthetic ACC2 peptide containing P450
T1 chain: ERIGFPLMIKASEGGGGK

T2: control ACC2 proline-containing peptide (P966)
T2 chain: ARLELDDPSKVHPAE

T3: synthetic ACC2 peptide containing P2131
T3 chain: AGQVWFPDSAYKTAQ


Columns and labels:
[1] = target: acetyl-CoA carboxylase 2 (ACC2), wild type
[2] = target: ACC2 P450A point mutant
[3] = target: T1, synthetic ACC2 peptide containing P450
[4] = target: T2, control ACC2 proline-containing peptide …
[5] = target: T3, synthetic ACC2 peptide containing P2131

| Protein | in vitro ACC activity assay ([14C]malonyl-CoA from [14C]bicarbonate, 293T lysates) [1] | in vitro ACC activity assay ([14C]malonyl-CoA from [14C]bicarbonate, 293T lysates) [2] | reconstituted in vitro radioactivity-based hydroxylation assay ([14C]CO2 release) [3] | reconstituted in vitro radioactivity-based hydroxylation assay ([14C]CO2 release) [4] | reconstituted in vitro radioactivity-based hydroxylation assay ([14C]CO2 release) [5] |
| --- | --- | --- | --- | --- | --- |
| HA-PHD3 (hemagglutinin-tagged prolyl hydroxylase 3, transiently overexpressed in 293T cells) (protein) MPLGHIMRLDLEKIALEYIVPCLHEVGFCYLDNFLGEVVGDCVLERVKQLHCTGALRDGQLAGPRAGVSKRHLRGDQITWIGGNEEGCEAISFLLSLIDRLVLYCGSRLGKYYVKERSKAMVACYPGNGTGYVRHVDNPNGDGRCITCIYYLNKNWDAKLHGGILRIFPEGKSFIADVEPIFDRLLFFWSDRRNPHEVQPSYATRYAMTVWYFDAEERAEAKKKFRNLTRKTESALTED | PHD3 overexpression amplified wild-type ACC2 activity | had no effect on the P450A variant |  |  |  |
| recombinant PHD3 (in vitro hydroxylation assay) (protein) MPLGHIMRLDLEKIALEYIVPCLHEVGFCYLDNFLGEVVGDCVLERVKQLHCTGALRDGQLAGPRAGVSKRHLRGDQITWIGGNEEGCEAISFLLSLIDRLVLYCGSRLGKYYVKERSKAMVACYPGNGTGYVRHVDNPNGDGRCITCIYYLNKNWDAKLHGGILRIFPEGKSFIADVEPIFDRLLFFWSDRRNPHEVQPSYATRYAMTVWYFDAEERAEAKKKFRNLTRKTESALTED |  |  | recombinant PHD3 was shown to hydroxylate a synthetic ACC2 peptide containing P450 | but not a peptide containing P2131 or a control ACC2 proline-containing peptide (P966) | but not a peptide containing P2131 |
